Results on one molecule are retold here after article PMC11374702, “Structural basis of the Meinwald rearrangement catalysed by styrene oxide isomerase” (Nature Chemistry, 2024).

This experiment concerns the target styrene oxide isomerase (SOI), Pseudomonas sp. VLB120, wild type (Pseudomonas sp. VLB120, UniProt O50216). The experiment is described as follows: cell-based or functional assay.

B1: nanobody (NB) raised against SOI, used for structure determination (VHH)
VHH: QGQLVESGGGLVQAGGSLRLSCTGSGRAFVTPAVGWFRQAPGKEREFVGTINWSGSHTSYADPVKGRFTISRDNAKETVYLQMNNLKPEDADVYYCASRGVSGRYEYWGKGTPVTVSS
With B1, the “catalytic efficiency (kcat/KM) for (S)-styrene oxide of the SOI–NB complex compared to the wild-type enzyme, coupled enzyme assay with EcALDH” value amounted to 3 fold.
